Data on three molecules can be found in patent US8455427B2, “Methods of modifying insulin signaling using biliverdin reductase” (University of Rochester, priority 2005, dated 2013).

The test system of data set [1] is BVR in 293A cells. Nature of the data set: BVR reductase activity in insulin-treated 293A cells. In kind it is cell-based, human. The conditions noted are these: insulin 50 nM. As for the experimental part: (§1) Cell culture and transfection and infection of 293A: 293A cells were grown in 10 cm-plates with Dulbecco's Modified Eagle Medium (DMEM) (Invitrogen, Carlsbad, Calif.) containing 10% fetal bovine serum and 1% penicillin-G/streptomycin for 24 h or until a confluency of 70% was reached. Cells were subsequently transfected with 4 μg of pcDNA3 mutant BVR Y^198 using Transfectin Lipid Reagent (Bio-Rad, Hercules, Calif.), according to the manufacturer's procedure and incubated for 48 h at 37° C. In addition, non-transfected cells were infected with pSuper-Retro-siBVR for 24 h in the presence of 4 μg/ml polybrene. Cells were starved in serum-free DMEM 16 h prior to insulin treatment (50 nM).
(§2) Measurement of BVR Reductase Activity: 293A cells treated with insulin were lysed in buffer containing a protease inhibitor cocktail and phosphatase inhibitors (10 mM NaF, […]). BVR activity was measured at pH 6.7 using NADH as the cofactor as described previously (Huang et al., J. Biol. Chem. 264:7844-9 (1989), which is hereby incorporated by reference in its entirety). The rate of conversion of biliverdin to bilirubin was determined as the increase in absorbance at 450 nm at 25° C. Specific activity is expressed as μmol of bilirubin/min/mg of protein.

Data set [2] relates to BVR in 293A cells. Kind of data set: BVR tyrosine phosphorylation in insulin-treated 293A cells (immunoprecipitation and immunoblotting). To be noted: within 8 min after insulin treatment. In kind it is cell-based, human. As for the experimental part:
as §1
Immunoprecipitation and immunoblotting: 293A Cells were plated in 10 cm plates and transfected with appropriate plasmids. Prior to collection, cells were washed twice with cold PBS and lysed in 300 μl cold modified RIPA buffer containing 50 mM Tris (pH7.4), 75 mM NaCl, 2 mM EDTA, 2 mM EGTA, 10 mM NaF, 1% Nonidet P-40, 0.5% sodium deoxycholate, 0.5% sodium vanadate, 1 mM PMSF, 10 μg/ml aprotinin, 1 mM benzamidine, 10 μg/ml leupeptine, and 10 μg/ml pepstatin. Cells sonicated (2×3 sec each) and centrifuged at 10,000×g for 15 min. Protein concentration was determined by Bradford assay (Bio-Rad, Hercules, Calif.). […]
In general terms: A western blot detects proteins with antibodies after separation by electrophoresis.

Data set [3] has as its target T1, insulin receptor tyrosine kinase (IRK) (Homo sapiens, UniProt P06213).
T1 construct: the 48 kDa cytoplasmic domain of the β-subunit of IRK; purchased Biomol International (Plymouth, Pa.)
Nature of the data set: BVR phosphorylation by the insulin receptor tyrosine kinase (IRK), in vitro [32P]-ATP assay. The data set is classed as biochemical. The conditions noted are these: for time course of phosphorylation by IRK: incubation with IRK up to 3-4 h, pH 8.0. As for the experimental part:
BVR phosphoiylation by the insulin receptor tyrosine kinase (IRK): Phosphorylation of BVR by IRK was examined using GST-HBVR fusion protein and the 48 kDa cytoplasmic domain of the β-subunit of IRK. BVR (5 μg) was incubated in 50 μl of IRK kinase buffer containing 50 mM HEPES (pH 8.0), 20 mM MgCl2, 1 mM DTT in the presence of 0.05 μg IRK and 10 μM ATP labeled with 10 μCi [γ-^32P]-ATP. The reaction was started with the addition of labeled ATP and incubated for 2-4 h. Reactions were terminated by addition of Laemmli sample buffer and boiled for 3 min. Samples were subjected to 8% SDS-PAGE and transferred to PVDF membranes for autoradiography.

The subject of the next data set is 293A cells. Nature of the data set: Insulin-mediated glucose uptake (2-deoxy 1-[3H] glucose). To be noted: insulin 15 min, vs controls infected with vector alone, p≦0.05. In kind it is cell-based, human. As for the experimental part:
as §1
Glucose uptake: Glucose uptake was assessed by measuring 2-deoxy 1-[^3H] glucose (2DG) absorption as described by (Braiman et al. (Mol. Endocrinol. 13:2002-12 (1999)), which is hereby incorporated by reference), with minor modifications. Briefly, after insulin treatment, cells in 6-wells plates were incubated in 1 ml PBS containing 5 mM glucose and 1 μCi/ml 2DG for 15 min. Solution was aspirated rapidly and wells were washed 3 times with cold PBS. Cells were solubilized by addition of 200 μl 1% (w/v) SDS. Radioactivity was measured and data was normalized to protein concentration. Non-specific uptake was determined in the presence of 200 mM of glucose and was subtracted from the total uptake. […]

The subject of another data set is human BVR. Kind of data set: BVR autophosphorylation. The conditions noted are these: pH 8.4, 30 mM MnCl2, 2 h, 30° C. In kind it is biochemical. The procedure:
BVR autophosphorylation and kinase activity: To detect autophosphorylation of BVR, GST-hBVR of wild type (wt) and mutant variants were incubated in 50 mM HEPES buffer (pH 8.4) in the presence of 30 mM MnCl2 and 1 mM DTT for 2 h at 30° C. The reaction was started with the addition of 10 μM ATP labeled with 10 μCi [γ-^32P]-ATP and was stopped with the addition of Laemmli sample buffer. Samples were boiled for 3 min and applied to a 8% SDS-PAGE gels, transferred to a PVDF membrane, and then visualized by autoradiography. To measure kinase activity, GST-BVR (5 μg) was incubated in 50 μl kinase buffer containing 50 mM HEPES buffer (pH 8.4), 20 mM MgCl2, 30 mM MnCl2, 1 mM DTT and 10 μM ATP labeled with 10 μCi [γ-^32P]-ATP in the presence of 5 μg substrates: IRS-1 or Raytide or poly glu/tyr (4:1) for 2 h at 30° C. The reaction was started with the addition of ATP and terminated by adding 120 μl 10% H3PO4. 100 μl aliquots were directly transferred to P81 Whatman filters which were subsequently washed extensively in 0.75% phosphoric acid at room temperature. Finally, the filters were submerged in acetone for 5 min, dried, and retained counts were measured using a Beckman LS 6500 liquid scintillation counter (Beckman Coulter, Fullerton, Calif.).

Data set [4] in a line: Reductase activity of purified BVR. The data set is classed as biochemical, human. To be noted: purified BVR not phosphorylated by IRK. As for the experimental part: as §2

T1 sequence (P06213 980-1382 limits assumed): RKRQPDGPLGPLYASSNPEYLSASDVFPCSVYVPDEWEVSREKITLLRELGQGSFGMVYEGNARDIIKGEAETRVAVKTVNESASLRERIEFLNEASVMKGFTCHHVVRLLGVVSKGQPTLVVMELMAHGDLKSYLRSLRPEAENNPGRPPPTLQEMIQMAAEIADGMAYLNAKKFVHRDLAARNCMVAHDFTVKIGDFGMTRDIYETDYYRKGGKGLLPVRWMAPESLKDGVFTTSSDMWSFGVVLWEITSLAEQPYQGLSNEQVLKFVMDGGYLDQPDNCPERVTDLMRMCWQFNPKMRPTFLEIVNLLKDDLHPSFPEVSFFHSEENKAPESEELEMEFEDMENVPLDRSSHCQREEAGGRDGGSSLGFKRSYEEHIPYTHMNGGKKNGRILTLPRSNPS

As for “insulin: Human insulin purchased from Sigma-Aldrich”, the “increase in BVR reductase activity” value with BVR in 293A cells [1] (1 h after treatment) came to 2 fold. Besides, the “BVR reductase activity, later time” value with BVR in 293A cells [1] (6 h after treatment) is “gradually returned to basal level”. Besides, in the data set on BVR in 293A cells [2], the BVR tyrosine phosphorylation entry is given as “dramatic increase in phosphorylation”.

B1: Y^198: human BVR point mutant, DQYMK to DQFMK (protein, UniProt P53004 3-296, looked up, variant Y198F)
Biliverdin reductase A: AEPERKFGVVVVGVGRAGSVRMRDLRNPHPSSAFLNLIGFVSRRELGSIDGVQQISLEDALSSQEVEVAYICSESSSHEDYIRQFLNAGKHVLVEYPMTLSLAAAQELWELAEQKGKVLHEEHVELLMEEFAFLKKEVVGKDLLKGSLLFTAGPLEEERFGFPAFSGISRLTWLVSLFGELSLVSATLEERKEDQFMKMTVCLETEKKSPLSWIEEKGPGLKRNRYLSFHFKSGSLENVPNVGVNKNIFLKDQNIFVQKLLGQFSEKELAAEKKRILHCLGLAEEIQKYCCSRK
Turning to B1, in data set [3], the “time course of phosphorylation by IRK” value is recorded as “less effective substrate for IRK”. Also, in data set [3] (mutant vs wtBVR, IRK 2 h at 30° C.), the “decrease of BVR phosphorylation by IRK caused by point mutation” value was approximately 70%. Further, the insulin-mediated glucose uptake entry in the data set on 293A cells is listed as “increased significantly”. Moreover, in the data set with human BVR, the “autophosphorylation of BVR mutants” value is on record as “did not result in significant changes in autophosphorylation of BVR”.

B2: biliverdin reductase (protein)
chain: MNAEPERKFGVVVVGVGRAGSVRMRDLRNPHPSSAFLNLIGFVSRRELGSIDGVQQISLEDALSSQEVEVAYICSESSSHEDYIRQFLNAGKHVLVEYPMTLSLAAAQELWELAEQKGKVLHEEHVELLMEEFAFLKKEVVGKDLLKGSLLFTSDPLEEDRFGFPAFSGISRLTWLVSLFGELSLVSATLEERKEDQYMKMTVCLETEKKSPLSWIEEKGPGLKRNRYLSFHFKSGSLENVPNVGVNKNIFLKDQNIFVQKLLGQFSEKELAAEKKRILHCLGLAEEIQKYCCSRK
modifications: left off: a dimerising Fc or GST
For B2, the “time course of phosphorylation by IRK” value in data set [3] was “detected when assessed at 1 h, and gradually increased up to 4 h”. Also, the “BVR reductase activity of the control” value in data set [4] amounted to 43.8 μmol per min per mg.
